Patent US20230192830A1

What was measured:
Conditions in all cases: remark: other sources report otherwise
[1] = target: iPHF, P10636; experiment: Octet BLI, antibody on biosensor, iPHF in solution
[2] = target: T1, enriched paired helical filament tau protein (ePHF) (human), P10636; experiment: follow up analysis, method not stated
[3] = target: T1, enriched paired helical filament tau …; experiment: direct ELISA, ePHF coated

T1 sequence (P10636 other isoform, or with tags, fused parts or gaps limits assumed): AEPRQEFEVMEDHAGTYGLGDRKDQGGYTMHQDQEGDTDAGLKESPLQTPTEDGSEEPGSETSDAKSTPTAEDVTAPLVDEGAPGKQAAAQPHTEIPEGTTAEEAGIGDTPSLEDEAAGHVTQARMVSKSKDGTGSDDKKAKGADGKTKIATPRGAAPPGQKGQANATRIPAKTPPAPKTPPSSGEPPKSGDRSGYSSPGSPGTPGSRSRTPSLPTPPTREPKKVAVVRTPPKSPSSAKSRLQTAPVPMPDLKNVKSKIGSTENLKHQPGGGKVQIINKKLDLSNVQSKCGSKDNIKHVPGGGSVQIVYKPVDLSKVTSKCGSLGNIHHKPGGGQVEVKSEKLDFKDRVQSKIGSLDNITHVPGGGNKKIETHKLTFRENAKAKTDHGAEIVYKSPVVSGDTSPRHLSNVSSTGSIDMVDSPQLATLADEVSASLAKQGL
Chain of iPHF, P10636 (P10636 other isoform, or with tags, fused parts or gaps): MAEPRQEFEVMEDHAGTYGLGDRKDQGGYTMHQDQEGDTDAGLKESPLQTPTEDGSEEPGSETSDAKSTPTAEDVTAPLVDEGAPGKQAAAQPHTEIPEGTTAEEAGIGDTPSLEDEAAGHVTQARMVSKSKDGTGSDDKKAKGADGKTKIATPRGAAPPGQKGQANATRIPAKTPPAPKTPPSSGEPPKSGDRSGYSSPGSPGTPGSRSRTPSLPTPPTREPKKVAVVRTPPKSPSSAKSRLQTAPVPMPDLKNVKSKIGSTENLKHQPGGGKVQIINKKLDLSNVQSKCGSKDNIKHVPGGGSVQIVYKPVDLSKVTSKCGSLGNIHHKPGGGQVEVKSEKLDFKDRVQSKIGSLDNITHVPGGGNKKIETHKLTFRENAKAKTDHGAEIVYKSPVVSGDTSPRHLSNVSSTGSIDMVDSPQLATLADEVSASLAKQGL

Row | Binder | Kd [1] | selectivity for ePHF over wild type tau [2] | EC50 [3]
1 | V0022 (antibody, mouse IgG1, V domains shown) VH: QVQLQQPGTELVKPGSSVNLSCKASGFTFTRYWMHWVKERPGHGLEWIGNINPNNGGTDFNEKFKNKATLTVHKSSTTVFIQLSSLTSEDSAVYYCARGTGTGAMDYWGQGTSVTVSS VL: DVVMTQTPLSLPVSLGDQASISCRSSQSLVHNNGITYLYWYLQKPGQSPKLLIYRVSNRFSGVPDRFGGSGSGTDFTLKISRVEAEDLGVYFCFQGTHVPRTFGGGTKLEIK | 0.3 nM | – | –
2 | V0023 (antibody, mouse IgG1, V domains shown) VH: QVQLQQPGTELVKPGASVKLSCKASGYTFTIFWMHWVKQRPGHGLEWIGKINPNNGGGDYNEKFKSKATLTVDKSSTTAYLQLSSLTSEDSAVYYCARGTGTGAMDYWGQGTSVTVSS VL: DVVMTQTPLSLPVSLGDHASISCRSSQSLVHSNGITHLYWYLQRPGQTPKLLIYRVSNRFSGVPDRFSGSGSGTDFTLKISSVEAEDLGVYFCFQGTHVPRTFGGGTKLEIE | 4 nM | – | –
3 | V0024 (antibody, mouse IgG1, V domains shown) VH: QVQLQQPGTELVKPGASVKLSCKASGYTFTRFWMHWVKQRPGQGLEWIGNINPNNGGTDNNERFKSKATLTVDRSSSTAYMQLSSLTSEDSAVYYCARGTGTGAMDYWGQGTSVTVSS VL: DVVMTQTPLSLPVSLGDQASISCRSSQSLVHSNGNTHLYWYLQKPGQSPKLLIYRVSSRFSGVPDRFSGSGSGTDFTLKISRVEAEDLGVYFCFQGTHVPRTFGGGTKLEIK | – | > 100 fold | 0.125 nM
